From paper PMC3212559, “Large-Scale Protein-Protein Interaction Analysis in Arabidopsis Mesophyll Protoplasts by Split Firefly Luciferase Complementation” (PLoS ONE, 2011)

Experiments:
IAA18-FLucC = target: T1, IAA18-FLucC (Arabidopsis, UniProt O24408 1-267); experiment: split reporter (BiFC, NanoBiT); SFLC in living Arabidopsis mesophyll protoplasts: Aux/IAA-FLucN or MYB30-FLucN co-expressed with ARFCTD-FLucC or Aux/IAA-FLucC for 6 hr; 10 µg of each construct, 2×10^4 cells, 96-well plate, D-luciferin; relative activity standardised against ARF5CTD-FLucC + IAA28-FLucN; conditions: partners not purified
T1 construct: Arabidopsis Aux/IAA protein IAA18; also called Aux/IAA-FLucC; source: Arabidopsis mesophyll protoplasts, transfected, in living cells; not shown: FLucC (firefly luciferase aa 394-550)
T1 sequence (looked up): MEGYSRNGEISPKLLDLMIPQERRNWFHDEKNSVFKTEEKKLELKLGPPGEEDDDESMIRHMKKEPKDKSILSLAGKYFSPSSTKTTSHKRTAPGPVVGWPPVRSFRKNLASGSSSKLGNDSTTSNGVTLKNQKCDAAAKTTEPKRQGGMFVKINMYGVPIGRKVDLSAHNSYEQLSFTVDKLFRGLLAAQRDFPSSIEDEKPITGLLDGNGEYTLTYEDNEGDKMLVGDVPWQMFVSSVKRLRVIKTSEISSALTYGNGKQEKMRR

IAA19-FLucC = target: T2, IAA19-FLucC (Arabidopsis, UniProt O24409 1-197); experiment: as above; conditions: partners not purified
T2 construct: Arabidopsis Aux/IAA protein IAA19; also called Aux/IAA-FLucC; source: Arabidopsis mesophyll protoplasts, transfected, in living cells; not shown: FLucC (firefly luciferase aa 394-550)
T2 sequence (looked up): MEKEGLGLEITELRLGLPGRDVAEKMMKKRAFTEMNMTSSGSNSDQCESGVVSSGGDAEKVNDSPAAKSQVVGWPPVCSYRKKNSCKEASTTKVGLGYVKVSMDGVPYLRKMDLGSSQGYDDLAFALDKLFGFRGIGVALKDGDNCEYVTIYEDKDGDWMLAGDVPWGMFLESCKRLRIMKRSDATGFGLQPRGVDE

B1: MYB30-FLucN (natural protein, UniProt Q9SCU7 1-323, looked up)
chain: MVRPPCCDKGGVKKGPWTPEEDIILVTYIQEHGPGNWRAVPTNTGLLRCSKSCRLRWTNYLRPGIKRGNFTEHEEKMIVHLQALLGNRWAAIASYLPQRTDNDIKNYWNTHLKKKLNKVNQDSHQELDRSSLSSSPSSSSANSNSNISRGQWERRLQTDIHLAKKALSEALSPAVAPIITSTVTTTSSSAESRRSTSSASGFLRTQETSTTYASSTENIAKLLKGWVKNSPKTQNSADQIASTEVKEVIKSDDGKECAGAFQSFSEFDHSYQQAGVSPDHETKPDITGCCSNQSQWSLFEKWLFEDSGGQIGDILLDENTNFF
notes: transcription factor MYB30, the unrelated protein used as negative control; source: Arabidopsis mesophyll protoplasts, transfected, in living cells; not shown: FLucN (firefly luciferase aa 1-398)
- relative luciferase activity (standardised against ARF5CTD-FLucC + IAA28-FLucN) (IAA18-FLucC): < 0.1
- relative luciferase activity (standardised against ARF5CTD-FLucC + IAA28-FLucN) (IAA19-FLucC): < 0.1
